Experimental data published in the supplement of paper PMC7125110.
± gives the standard error. This sample holds only a part of the variants without activity.

B1: glmS ribozyme (parent)
chain: AUAAAAGCGCCAGAACUACAGAAAUGUAGUUGACGAGGAGGAGGUUUAUCGAAUUUUCGGCGGAUGCCUCCAAA

Variants of: B1
Experiment: self-cleavage kobs at 2500 uM GlcN6P; higher = faster cleavage; RNA array
Conditions: with glucosamine-6-phosphate
Summary of the method: (§1)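 kcat and KM were obtained from weighted Michaelis–Menten fits across concentrations of kobs values. Those came from one- or two-exponential decay fits to per-tile medians normalised to baseline and to non-cleaving reference variants. The variants were barcoded ribozymes transcribed in situ by E. coli RNA polymerase on sequenced MiSeq chips and tracked through a hybridised Cy3 probe at 37 °C, with 40 μM to 10 mM glucosamine-6-phosphate in HEPES/KCl/Mg(OAc)2 buffer flowed in.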

Row | Variant | self-cleavage kobs at 2500 uM GlcN6P [s⁻¹]
1 | AUAAAAGCGCCAGAACUACAGAAAUGUAGUUGACGGGGAGGAGGUUUAUCGAAUAUUCGGCGGAGGCCUCCAAA [A36G U55A U65G] | < 1e-05
2 | AUAAAAGCGCCAGGACUACAGAAAUGUAGUUGUCGAGGAGGACGUUUAUCGAAUUUUCGGCAGAUGCCUCCAAA [A14G A33U G43C G62A] | < 1e-05
3 | AUAAAAGCGCCAGAACUACAGAAAUGUAGUUGACGAGGAGGAGGUUUAUCGAAUUUUCCGUGGAUGACUCCAAA [G59C C61U C67A] | 4.78e-05 ± 1.7e-05
4 | AUAAAAGCGCCAGUACUACAGAAAUGUAGUUGACGACGAGGCGGUUUAUCGAAUUUUCGGCGGAUGCCUCCAAA [A14U G37C A42C] | < 1e-05
5 | AUAAAAGCGCCAGAACUACAGAAAUGUAUUUGACGUGGAGGUGGUUUAUCGAAUUGUCGGCGGAUUCCUCCAAA [G29U A36U A42U U56G G66U] | < 1e-05
6 | AUAAAAGCGCCAGAACUACAGAAAUGUAUUUCACGAGGAGGCGGUUUAUCGAAUUUGCGGCGGAUGCCUCCAAA [G29U G32C A42C U57G] | < 1e-05
7 | AUAAAAGCGCCAGAACUACAGAAAUGUAGUUGACGAGGAGGAGGUUUUUCGAAUUUUCGGCGGAUGCCACCAAA [A48U U69A] | 2.8e-05 ± 1.3e-05
8 | AUAAAAGCCCAAGAACUACAGAAAUGUAGUUGACAAUGCGGAGGUUUAUCGAAUUUUCUGCGGAUGCCUCCAAA [G9C C11A G35A G37U A39C G59U] | < 1e-05
9 | AUAAAAGCGCCAGACCUACAGAAAUGUAGUUGACGAGGAGGAGAUUUAUCGAAUUUUGGGCUGAUGCCUCCAAA [A15C G44A C58G G62U] | < 1e-05
10 | AUAAAAGCCCCAGAUCUACAGAAAUGUAGUUGACGAGGAGGUGGUUUAUCGAAUUUUCGGCGGAUGCCUCCAAA [G9C A15U A42U] | < 1e-05
11 | AUAAAAGCGUCAGAACUACAGAAAUGUAGUUGACGAGGAGGAGGUUUAUCGAAUUUUCGCCGUAUGCCUCCAAA [C10U G60C G63U] | < 1e-05
12 | AUAAAUCCGCCAGAUCUACAGAAAUGUACUUGACGAGAAGGAGAUUUAUCGAAUUUUCGGAGGAUGCCUCCAAA [A6U G7C A15U G29C G38A G44A C61A] | < 1e-05
13 | AUAAAAGCGACAGAACUACAGAAAUGUAGUUGAAGAGGAGGAGGUUUAUCGAAUUUUCGGCGGACCCCUCGAAA [C10A C34A U65C G66C C71G] | < 1e-05
14 | AUAAAAGCGCCAGAACUACAGAAAUGUAGUUGACGAGGAGGAGGUUUAUCGAAUUCUUGGCGAAUGCCUCCAAA [U56C C58U G63A] | < 1e-05
15 | AUAAAAGCGCCAGAACUACAGAAAUGUAGUUGACGAGGAGUCGGUUUAUCGAAUUUUCGGCGGAUGCCUUCAAA [G41U A42C C70U] | 0.000121 ± 2.6e-05
16 | AUAAAAGUGCCAGAACUACAGAAAUGUAGUUGACGAGGAGGCGGUAUAUCGAAUAUUCGGCGGAUGCCUCCAAA [C8U A42C U46A U55A] | < 1e-05
17 | AUAAAAGCGCCAGAACUACAGAAAUGUAGUUGAGGAGGAGGAGGUAAAUCGAAUUUUCGGCGGACGCGUCCAAA [C34G U46A U47A U65C C68G] | < 1e-05

Row | Variant | self-cleavage kobs at 2500 uM GlcN6P [s⁻¹]
18 | AUAAAAGCGCCAGAACUACAGAAAUGUAGUUGAAGAGGAGGAGGUUUUUUGAAUUUUCGGCGGAUGCCUCCAAA [C34A A48U C50U] | < 1e-05
19 | AUAAAGGCGCCAGCACUACAGAAAUGUAGUUGACGAGCAGGAGGUUUAUCGAAUUUUCGGCGGAUGCCUCCAAA [A6G A14C G38C] | < 1e-05
20 | AUAAAAGGGCCUGAACUACAGAAAUGUAGUAGACGAGGAGGAGGUUUAUCCAAUUUUCGGCGGAUGCCUCCAAA [C8G A12U U31A G51C] | < 1e-05
21 | AUAAAGGCGCCAGAACUACAGAAAUGUAGUUGCCGAGGAGGAGGUGUAUCGAAUUUUCGGCGGAUGCCUCCAAA [A6G A33C U46G] | < 1e-05
22 | AUAAAAGAGCUAGAACUACAGAAAUGUAGUUGACGAGGAGGAGGUUUUUCGAAUUAUCGGCGGAUGCCUCCAAA [C8A C11U A48U U56A] | < 1e-05
23 | AUAAAAGCGCCAGAACUACAGAAAUGUAGUUGACGAGGAGGAGGUUUAUCGACUUUUCGGCGGACGCCUCCAAA [A53C U65C] | 0.000159 ± 3.9e-05
24 | AUAAAAGCGCCAGAACUACAGAAAUGUAGUAGACGAGGAGGAGGUCUAUCGAGUUUUCGGCGGAUGCCUACAAA [U31A U46C A53G C70A] | 4.56e-05 ± 1.7e-05
25 | AUAAAAGCGCCAGAACUACAGAAAUGUACUUGACGAGGCGGAGGUUUUCCGAAUUUACGAAGGAUGACUCCAAA [G29C A39C A48U U49C U57A G60A C61A C67A] | < 1e-05
26 | AUAAAAGCGCCAGAACUACAGAAAUGUAGUUGACGAGGAGGAGGUUUAUCGAUUUGUCGGCGGAGGCCUCCAAA [A53U U56G U65G] | 0.000913 ± 0.00018
27 | AUAAAAGCGCCAGAACUACAGAAAUGUAGUUGAAGAGGAGGAAGUUUAUGGAACUUUCGGCGGAUGCCUCCAAA [C34A G43A C50G U54C] | < 1e-05
28 | AUAAAAGCGCCAGAACUACAGAAAUGUAAUUGACGAGGAGGCGGUUUAUCGAAUUUUCGGCGGUUGCCUCCAAA [G29A A42C A64U] | < 1e-05
29 | AUAAAAGCUCCAGAACUACAGAAAUGUAGUUGACGGGGAGGAGGUUUAUCGAAUUUUCGGGGGAUGUCUCCAAA [G9U A36G C61G C67U] | < 1e-05
30 | AUAAAAGCGCCAGAACUACAGAAAUGUAGUUGACGAGGUGGAGGUUUUUCGAAUUUUCGGCGGAUGGCUCCAAA [A39U A48U C67G] | 0.00017 ± 6.1e-05
31 | AUAAAAGCGCCAGGACUACAGAAAUGUAGUUGACGAGGAGGAGGUUUAUCGACUUUGCGGCGGAUGCCUCCAAA [A14G A53C U57G] | 0.000168 ± 5.2e-05
32 | AUAAAAGCGCCAGAACUACAGAAAUGUAGUUGACGAGCAGCAGGUUUAUCGAAUUUUCGGAGGAUGCCUCGAAA [G38C G41C C61A C71G] | < 1e-05
33 | AUAAAAGCGCGAGAACUACAGAAAUGUAUUUGACGAGGAGGAGGUUUAUUGAAUUUUCGGCGGAUGUCUCCAAA [C11G G29U C50U C67U] | 0.0015 ± 0.00049

Variants of: B1
Experiment: self-cleavage kobs at 10000 uM GlcN6P; higher = faster cleavage; RNA array
Conditions: with glucosamine-6-phosphate
Summary of the method: as §1

Row | Variant | self-cleavage kobs at 10000 uM GlcN6P [s⁻¹]
34 | AUAAAUCCGCCAGAUCUACAGAAAUGUACUUGACGAGAAGGAGAUUUAUCGAAUUUUCGGAGGAUGCCUCCAAA [A6U G7C A15U G29C G38A G44A C61A] | < 1e-05
35 | AUAAAAGCGCCAGAACUACAGAAAUGUAGUUGAGGAGGAGGAGGUAAAUCGAAUUUUCGGCGGACGCGUCCAAA [C34G U46A U47A U65C C68G] | < 1e-05
36 | AUAAAGGCGCCAGAACUACAGAAAUGUAGUUGCCGAGGAGGAGGUGUAUCGAAUUUUCGGCGGAUGCCUCCAAA [A6G A33C U46G] | < 1e-05
37 | AUAAAAGCGCCAGAACUACAGAAAUGUAGUUGACGAGGUGGAGGUUUUUCGAAUUUUCGGCGGAUGGCUCCAAA [A39U A48U C67G] | 0.000104 ± 1.6e-05
